B1: Rtt103 CTD-interacting domain (residues 1-131) (domain or fragment)
chain: MPFSSEQFTTKLNTLEDSQESISSASKWLLLQYRDAPKVAEMWKEYMLRPSVNTRRKLLGLYLMNHVVQQAKGQKIIQFQDSFGKVAAEVLGRINQEFPRDLKKKLSRVVNILKERNIFSKQVVNDIERSL
B2: Rtt103(E115R)-CID (domain or fragment)
chain: MPFSSEQFTTKLNTLEDSQESISSASKWLLLQYRDAPKVAEMWKEYMLRPSVNTRRKLLGLYLMNHVVQQAKGQKIIQFQDSFGKVAAEVLGRINQEFPRDLKKKLSRVVNILKRRNIFSKQVVNDIERSL
B3: Rtt103-CID (R108N) (domain or fragment)
chain: MPFSSEQFTTKLNTLEDSQESISSASKWLLLQYRDAPKVAEMWKEYMLRPSVNTRRKLLGLYLMNHVVQQAKGQKIIQFQDSFGKVAAEVLGRINQEFPRDLKKKLSNVVNILKERNIFSKQVVNDIERSL
B4: Pcf11 CTD-interacting domain (domain or fragment, S. cerevisiae, UniProt P39081 4-139, looked up)
chain: DTEVIVKDFNSILEELTFNSRPIITTLTKLAEENISCAQYFVDAIESRIEKCMPKQKLYAFYALDSICKNVGSPYTIYFSRNLFNLYKRTYLLVDNTTRTKLINMFKLWLNPNDTGLPLFEGSALEKIEQFLIKAS
B5: Pcf11-CID (N107R): Pcf11 with arginine in place of Asn107; CID in vitro, TAP tagged protein in ChIP (protein)
chain: DTEVIVKDFNSILEELTFNSRPIITTLTKLAEENISCAQYFVDAIESRIEKCMPKQKLYAFYALDSICKNVGSPYTIYFSRNLFNLYKRTYLLVDNTTRTKLIRMFKLWLNPNDTGLPLFEGSALEKIEQFLIKAS
B6: Pcf11(D117A)-CID (domain or fragment)
chain: DTEVIVKDFNSILEELTFNSRPIITTLTKLAEENISCAQYFVDAIESRIEKCMPKQKLYAFYALDSICKNVGSPYTIYFSRNLFNLYKRTYLLVDNTTRTKLINMFKLWLNPNATGLPLFEGSALEKIEQFLIKAS
B7: Pcf11(D117K)-CID (domain or fragment)
chain: DTEVIVKDFNSILEELTFNSRPIITTLTKLAEENISCAQYFVDAIESRIEKCMPKQKLYAFYALDSICKNVGSPYTIYFSRNLFNLYKRTYLLVDNTTRTKLINMFKLWLNPNKTGLPLFEGSALEKIEQFLIKAS

Tests used:
[1] = target: Pcf11 CTD-interacting domain (S. cerevisiae) (UniProt P39081); assay: NMR titration
[2] = target: Rtt103 CTD-interacting domain (residues 1-131) (S. cerevisiae) (UniProt Q05543); assay: NMR titration
[3] = target: Pcf11-CID (N107R) (S. cerevisiae) (UniProt P39081); assay: NMR titration
[4] = target: Ser5abP-CTD diheptad repeat peptide; assay: fluorescence polarisation
[5] = target: Ser2abP/Ser5abP-CTD diheptad repeat peptide; assay: fluorescence polarisation
[6] = target: Ser2abP-CTD diheptad repeat peptide (phosphorylated at both Ser2 positions); assay: fluorescence polarisation
[7] = target: four heptad repeat Ser2P CTD peptide; assay: fluorescence polarisation
[8] = target: four heptad repeat Ser2P CTD peptide; assay: NMR relaxation
ADH1 gene = assay: ChIP of TAP tagged proteins, 3′-end recruitment; format: cell-based, yeast
PMA1 gene = assay: ChIP of TAP tagged proteins, 3′-end recruitment; format: cell-based, yeast
AUC = target: the molecule itself; assay: AUC
[9] = untagged wild-type Pcf11 present

Molecule	Kd [1] [µM]	Kd [2] [µM]	Kd1 (first binding event) [7] [µM]	Kd2 (second binding event) [7] [µM]	further results
Ser2abP-CTD diheptad repeat peptide (phosphorylated at both Ser2 positions)	160	15			Kd [3]: 24 µM
Ser2bP-CTD diheptad repeat peptide	240	76			
Ser2aP-CTD diheptad repeat peptide	1400	420			
Ser5abP-CTD diheptad repeat peptide	1200				
Ser2abP/Ser5abP-CTD diheptad repeat peptide	630	41			
B1			3	20	Kd [4]: 122 µM; Kd [5]: 53 µM; Kd [6]: 2.1 µM; stoichiometry N (proteins per peptide) [8]: 2
B2			1.8	> 1000	stoichiometry N (protein per peptide) [8]: 1
B3					Reduction of 3′-end recruitment compared with wild type (factor) (ADH1 gene): 5; Kd [6]: 100 µM; Reduction of 3′-end recruitment compared with wild type (factor) (PMA1 gene): 8
B4			50	140	stoichiometry N (AUC): 2; Kd [5]: 370 µM; Kd [6]: 130 µM
B5					Increase of 3′-end recruitment compared with wild type Pcf11-TAP (factor) (ADH1 gene; [9]): > 2; Increase of 3′-end recruitment compared with wild type Pcf11-TAP (factor) (PMA1 gene; [9]): > 2
B6			40	430	
B7			30	130	

From publication PMC2950884 (Nature structural & molecular biology, 2010)
